Results: the supplement of paper PMC10724198
± gives the standard deviation of the averaged measurements.

tested on: Saccharomyces cerevisiae; assay: protein stability index of tFT-peptide fusion (C-terminal peptide) (PSI (0-1 scale)); higher = more stable (slower turnover); conditions: genetic background: wild type; temperature: 30 C
Protocol: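 Multiplexed protein stability (MPS) profiling in S. cerevisiae. Random 12-aa peptides (tFT-X12 library) are fused to the C-terminus of a sfGFP-mCherry tandem fluorescent timer, after mCherry and a GGGS linker. Cells are FACS-sorted into 8 mCherry/sfGFP bins and deep-sequenced. The protein stability index (PSI) is the read-weighted bin average, scaled from 0 (unstable) to 1 (stable). Only peptides with >10 reads are reported; cells were grown at 30 °C in SC-His with glucose.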
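Note: PSI is a weighted mean of sequencing reads over stability bins, variants kept only with over 10 reads, mCherry proximal and sfGFP distal, peptide attached via GGGS linker.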

Point of comparison: ALVAGGRGRRLW, protein stability index 0.692 ± 0.087. Against it:
- AADVALQFKPRT — within error, 0.658 ± 0.027
- AAFHSSSAFFFN — within error, 0.718 ± 0.019
- AAGAGAPRRPLL — within error, 0.683 ± 0.02
- AAGGASRHLSGS — within error, 0.71 ± 0.09
- AAIVVRLCSLLR — lower, 0.593 ± 0.0091
- AALSNRGIHWWK — within error, 0.732 ± 0.018
- AAPGMIFRDPAQ — within error, 0.739 ± 0.18
- AAPPPRRPCPPL — within error, 0.678 ± 0.038
- AAQRGSTMARGG — within error, 0.704 ± 0.064
- AARRPARACGGQ — within error, 0.632 ± 0.025
- AAWSGGGAGCWT — within error, 0.708 ± 0.041
- ACLGVSTPSLGI — within error, 0.672 ± 0.027
- ACLIHWVVSGAR — within error, 0.677 ± 0.016
- ACPCTLCMALSR — within error, 0.6476 ± 0.0014
- ACREVAGAPGGL — within error, 0.671 ± 0.035
- ACVRVVRLGCGW — within error, 0.616 ± 0.063
- ACWGCGVGRGEV — within error, 0.814 ± 0.12
- ADKNQQTVNWRR — within error, 0.6956 ± 0.0019
- ADLPALGSCGSY — within error, 0.631 ± 0.013
- ADPPLFYPPSHT — within error, 0.69 ± 0.021
- ADWGSRRPSRCP — within error, 0.68915 ± 0.00051
- AEAFFRIVRTVR — within error, 0.721 ± 0.034
- AEAKAVKSVSVR — within error, 0.638 ± 0.042
- AEARTRYVPRPR — within error, 0.686 ± 0.02
- AEEAEVAGPRHC — within error, 0.777 ± 0.18
- AEFMRGVFKVSC — within error, 0.6816 ± 0.0036
- AELSTRPPAPPL — within error, 0.715 ± 0.096
- AERSVRGTTPGG — within error, 0.632 ± 0.051
- AETESASRCLHW — within error, 0.776 ± 0.026
- AEWGGSTGGCWG — within error, 0.722 ± 0.15
- AFASVLPSSLSS — within error, 0.641 ± 0.085
- AFDPGLPPRRSD — within error, 0.755 ± 0.011
- AFGRLNTWFCFP — within error, 0.719 ± 0.037
- AFLVGDVFGRLL — within error, 0.602 ± 0.016
- AFMPGLLGDTYE — within error, 0.662 ± 0.022
- AFMVFCRSLLAP — within error, 0.684 ± 0.014
- AFRCGGGPGDFA — within error, 0.6513 ± 0.0027
- AFVLTSRVFFPL — within error, 0.721 ± 0.053
- AFWLPAAVPLIF — within error, 0.584 ± 0.022
- AFYFGQFEFWRC — within error, 0.698 ± 0.034
- AGAATGAGGLQG — within error, 0.672 ± 0.037
- AGCGGIWGVWVL — within error, 0.701 ± 0.072
- AGEERWGGCLTG — within error, 0.653 ± 0.021
- AGGAEAVRRAGG — within error, 0.675 ± 0.019
- AGGGGGTRVHWR — within error, 0.682 ± 0.013
- AGGGPGLEARSL — within error, 0.612 ± 0.017
- AGGGWAVQVGMG — within error, 0.684 ± 0.042
- AGGPGWGALVGA — within error, 0.645 ± 0.047
- AGGRGGGGGGDA — within error, 0.663 ± 0.0071
- AGGSGGGRDRLV — within error, 0.694 ± 0.024
- AGGSVGEAGSEG — within error, 0.649 ± 0.026
- AGGWLGAEGCGG — within error, 0.78 ± 0.033
- AGICLRSFRCFW — within error, 0.672 ± 0.0079
- AGLGGGARQGAL — within error, 0.672 ± 0.024
- AGLLFDSPPLLV — within error, 0.725 ± 0.034
- AGPPRTAVSPPL — within error, 0.675 ± 0.016
- AGQGSISCWSKD — within error, 0.707 ± 0.045
- AGRGGSPRFVGR — within error, 0.657 ± 0.053
- AGRGRAIGAGFS — within error, 0.649 ± 0.054
- AGRRGVNGGGWG — within error, 0.686 ± 0.039
- AGRRTGSRESEQ — within error, 0.612 ± 0.061
- AGSAGKWCWCGG — within error, 0.711 ± 0.039
- AGSALSSAYTLM — within error, 0.703 ± 0.13
- AGSSFDLGSGYS — within error, 0.724 ± 0.083
- AGSSGVRLSEFP — within error, 0.671 ± 0.11
- AGSYERFSRGHR — within error, 0.688 ± 0.034
- AGVLTRGNCCGG — within error, 0.6885 ± 0.005
- AGVPCLSVPPLG — within error, 0.683 ± 0.031
- AGVTRALSVFLL — lower, 0.54 ± 0.043
- AGWCWVWGVELV — within error, 0.687 ± 0.04
- AGWGGIWGLWVL — within error, 0.715 ± 0.11
- AGYEEWVRDARV — within error, 0.73 ± 0.0075
- AGYENKAENKSV — within error, 0.656 ± 0.011
- AGYGGILRSRGG — within error, 0.698 ± 0.059
- AHMAQQNEQRVK — within error, 0.748 ± 0.071
- AHQRSRRPKPSR — within error, 0.65 ± 0.072
- AHSPPTRISPTH — within error, 0.75 ± 0.097
- AHVLQRVRLLSR — within error, 0.618 ± 0.023
- AIACYLGLTSYP — within error, 0.647 ± 0.021
- AIAGSLSYCWDD — within error, 0.678 ± 0.022
- AIANIIERFTLL — within error, 0.63 ± 0.066
- AILSDGLTHWGL — within error, 0.736 ± 0.058
- AIPAVRFCRTLR — within error, 0.643 ± 0.055
- AIRENISIRLNC — lower, 0.482 ± 0.026
- AKDSVDYKEGES — within error, 0.6602 ± 0.0041
- AKEERKVIRKMK — within error, 0.659 ± 0.063
- AKETSINKKALI — within error, 0.6903 ± 0.0047
- AKFERRTIGCSA — within error, 0.605 ± 0.0042
- AKKKKKKIKTKH — within error, 0.8 ± 0.14
- AKSCNSVHALRT — within error, 0.668 ± 0.11
- ALASLPPQPHSP — within error, 0.665 ± 0.047
- ALCQEFAALEPR — within error, 0.726 ± 0.051
- ALFKESMLSTCA — lower, 0.564 ± 0.022
- ALLKGASCRTAS — within error, 0.696 ± 0.03
- ALLPTLFNSGAV — within error, 0.736 ± 0.015
- ALPLLPPHSLPP — within error, 0.617 ± 0.011
- ALPLRFSSPGPS — within error, 0.659 ± 0.0068
- ALPPLLLLPASP — within error, 0.691 ± 0.0093
- ALPPPIPHPLFL — within error, 0.701 ± 0.019
- ALPPPLPPPAGP — within error, 0.699 ± 0.077
- ALQLLNPSLLKY — within error, 0.786 ± 0.06
- ALQVKWRGCLRF — within error, 0.733 ± 0.099
- ALRMVRHCPVNT — within error, 0.667 ± 0.029
- ALSLARVSSPLF — within error, 0.707 ± 0.06
- ALSPAPGTSLMR — within error, 0.69 ± 0.016
- ALSRRPAAGDGP — within error, 0.641 ± 0.024
- ALTGYYNQYRYE — within error, 0.745 ± 0.025
- ALVAPAYYWGDV — within error, 0.745 ± 0.059
- ALVRGGYLFFPP — within error, 0.663 ± 0.026
- ALWQADTRSVNN — within error, 0.64 ± 0.097
- ALYISLRELACP — lower, 0.548 ± 0.018
- AMFFAFSRSLMS — within error, 0.639 ± 0.026
- AMLDSPRHLPSA — within error, 0.679 ± 0.041
- ANSGSRSSRVVG — within error, 0.643 ± 0.1
- APAPSPPPPPPD — lower, 0.562 ± 0.037
- APDRPTPSLSSP — within error, 0.7057 ± 0.0053
- APFRVALPGVCG — within error, 0.623 ± 0.02
- APHPYPPTPPAP — within error, 0.725 ± 0.014
- APILLFIEPLPP — lower, 0.5631 ± 0.0037
- APLPHAASSLPA — within error, 0.6982 ± 0.0046
- APPAHPARSHTP — within error, 0.69 ± 0.019
- APPARGTGRASL — within error, 0.738 ± 0.017
- APPARSTPPPRP — within error, 0.712 ± 0.045
- APPHPPPPLPPP — within error, 0.6366 ± 0.0052
- APPLPPLFPPSP — within error, 0.677 ± 0.047
- APPLPPPPLDTS — within error, 0.729 ± 0.011
- APPPFLCSPFVA — within error, 0.698 ± 0.0092
- APPPHPRHPTHS — within error, 0.777 ± 0.089
- APPPMPLPLIPL — within error, 0.633 ± 0.04
- APPPPHSSHPPP — within error, 0.713 ± 0.027
- APPPPLLPHPTP — within error, 0.736 ± 0.028
- APPPPPPAPQPP — within error, 0.619 ± 0.067
- APPPPPPSPRVP — within error, 0.71 ± 0.047
- APPQFPLTPPPP — within error, 0.647 ± 0.011
- APPRPPPRPHPP — within error, 0.571 ± 0.063
- APPVAKHHAGKD — within error, 0.647 ± 0.016
- APRPRHFPTLPS — within error, 0.812 ± 0.077
- APRRVAVAGETS — within error, 0.707 ± 0.043
- APSPPPDPATPR — within error, 0.672 ± 0.026
- APSSLLTPPACI — within error, 0.734 ± 0.083
- APSSPRSSTPRP — within error, 0.763 ± 0.085
- APTGGTNVRRPE — within error, 0.726 ± 0.024
- APTPPPPLSPRS — within error, 0.69 ± 0.034
- APTVPQILVRHA — within error, 0.6736 ± 0.0047
- APVGLTFNSSLL — within error, 0.7107 ± 0.0032
- APYLPACALSSL — within error, 0.706 ± 0.015
- APYSGSAMVIPG — within error, 0.713 ± 0.028
- AQAPSPGRAPSP — within error, 0.7158 ± 0.0022
- AQFFQALATYPI — within error, 0.677 ± 0.022
- AQHTGFMRELRR — within error, 0.7278 ± 0.0016
- AQPLARTALPRR — within error, 0.775 ± 0.019
- AQRKSVLSPDLC — within error, 0.67 ± 0.035
- AQTEADGRAHDP — within error, 0.6344 ± 0.0058
- ARADIQIACIIE — within error, 0.6418 ± 0.00089
